The values that follow come from publication PMC9605988, “Juxtaposition of Bub1 and Cdc20 on phosphorylated Mad1 during catalytic mitotic checkpoint complex assembly” (Nature Communications, 2022).

Substitutions are numbered along the chain they refer to. Names and notes keep the numbering of the source. Where two headings read alike, the source gives them in different places.

Data set [1] has as its target Mad1^CTD phosphorylated at Thr716 (pMad1^CTD) (UniProt Q9Y6D9). Kind of data set: AUC; sedimentation equilibrium; 20 mM HEPES pH 7.5, 100 mM NaCl, 1 mM TCEP; 20 °C; 10,200, 12,200 and 21,000 rpm; up to four-fold molar excess of Cdc20^N.
Data set [2] shares this target. Briefly: SEC-MALS; Superdex 75 or Superdex 200 Increase 10/300 GL, 0.5 ml/min; about 100 μl at ~3.0 mg/ml; Mad1^CTD dimer to Cdc20^N 1:1.2; proteins also run alone.
Data set [3] has as its target T1, preformed AF488-Bub1^CD1:Mad1^CTD complex (Mad1^CTD unphosphorylated) (UniProt Q9Y6D9 597-718, Aurora Fluor 488 (AF488) on the N-terminal Cys; phosphoserine (pSer459); phosphothreonine (pThr461)).
T1 construct: Mad1 C-terminal domain (Mad1^CTD), residues 597-718; as m1; added N-terminal Cys (carries AF488) and Trp; as m7; Bub1 conserved domain 1 (CD1) peptide; also called Mad1^CTD:AF488-Bub1^CD1 complex; source: mixed from purified Mad1^CTD and synthetic peptide (20 nM: 2.1 µM); copies: 2 + 1
T1 sequence 1: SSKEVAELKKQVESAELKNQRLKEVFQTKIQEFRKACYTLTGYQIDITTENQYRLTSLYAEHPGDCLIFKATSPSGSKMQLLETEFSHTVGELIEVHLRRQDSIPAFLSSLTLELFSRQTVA
T1 sequence 2: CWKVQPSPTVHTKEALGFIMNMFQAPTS
Kind of data set: fluorescence polarisation; fluorescence anisotropy; Cdc20^N twofold series (100 μM to 6 nM, mixed 1:1) titrated into preformed AF488-Bub1^CD1:Mad1^CTD (20 nM: 2.1 µM); 25 mM HEPES pH 7.75, 1 mM TCEP, 100 mM NaCl, 0.05% Tween-20; 25 °C. The settings on record: both partners purified. For orientation: Fluorescence polarisation rises when a labelled molecule tumbles more slowly, as on binding a larger partner.

In data set [4] the target is T2, preformed AF488-Bub1^CD1:pMad1^CTD complex (Mad1^CTD phosphorylated at Thr716) (UniProt Q9Y6D9 597-718, phosphothreonine at 716 (pThr716) | Aurora Fluor 488 (AF488) on the N-terminal Cys; phosphoserine (pSer459); phosphothreonine (pThr461)).
T2 construct: Mad1 C-terminal domain (Mad1^CTD), residues 597-718; as m2; added N-terminal Cys (carries AF488) and Trp; as m7; Bub1 conserved domain 1 (CD1) peptide; source: mixed from purified pMad1^CTD and synthetic peptide (20 nM: 2.1 µM); copies: 2 + 1
T2 sequence 1: T1 sequence 1
T2 sequence 2: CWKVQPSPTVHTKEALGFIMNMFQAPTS
Described as above. The conditions noted are these: both partners purified.

The target in data set [5] is T3, Mad2 R133A prepared in the open state for NMR (O-Mad2) (UniProt Q13257 1-205, R133A).
T3 construct: Mad2; also called O-Mad2 with an R133A mutation; source: 15N-labelled in M9 minimal media
Kind of data set: NMR time course (1H,15N HSQC); 100 μM 15N O-Mad2 R133A with 200 μM Cdc20^MIM peptide; 25 °C; Trp75 and Trp167 indole resonances as reporters. The conditions noted are these: both partners purified.

Data set [6] concerns the molecule itself. Kind of data set: SEC-MALS; Superdex 75 or Superdex 200 Increase 10/300 GL, 0.5 ml/min; about 100 μl at ~3.0 mg/ml; Mad1^CTD dimer to Cdc20^N 1:1.2; proteins also run alone. In general terms: Size exclusion chromatography separates by hydrodynamic size, large species first.
Data set [7] concerns Bub1CD1. The conditions noted are these: cited from earlier work. The source says: (§1) In this predicted model, the Cdc20^N α1 helix lies diagonally across the Mad1^CTD coiled-coil with its N-terminus close to the Mad1 RLK motif of one monomer, and the C-terminus contacting the head domain β-sheet of the adjacent monomer, in a manner that strikingly mimics the Bub1^CD1:Mad1^CTD interaction (Fig. 4d). Similar to Bub1^CD1, the interaction of Cdc20 α1 with Mad1^CTD would largely be driven by hydrophobic interactions (Fig. 4e). This model predicts that Gln3 and Glu7, and Asp9 of Cdc20 α1 interact with Arg617 and Lys619, respectively of the Mad1^CTD RLK motif (Fig. 4d). This is consi ...

The subject of data set [8] is spindle assembly checkpoint. The conditions noted are these: cited from earlier work.
Description: as §1

For data set [9], the system named is Bub1CD1. Briefly: Binding of Mad1CTD mutants to Bub1CD1. The settings on record: fluorescence anisotropy therefore not usable for this mutant. As for the experimental part:
All reactions were completed in a buffer of 25 mM HEPES pH 7.75, 1 mM TCEP, 100 mM NaCl, 0.05% (v/v) Tween-20. […] Measurements were performed with a PheraStar plate reader FSX plate reader (BMG Labtech) using an optic module for λex = 485 nm, λem = 520 nm. Reactions were carried out in a total volume of 40 μl at 25 °C in a black, flat-bottom, non-binding surface 384-well plate (Corning). All experiments were performed as technical triplicates and data were analysed in PRISM 9.3.1 (GraphPad Software).

T3 sequence (Q13257 whole entry R133A): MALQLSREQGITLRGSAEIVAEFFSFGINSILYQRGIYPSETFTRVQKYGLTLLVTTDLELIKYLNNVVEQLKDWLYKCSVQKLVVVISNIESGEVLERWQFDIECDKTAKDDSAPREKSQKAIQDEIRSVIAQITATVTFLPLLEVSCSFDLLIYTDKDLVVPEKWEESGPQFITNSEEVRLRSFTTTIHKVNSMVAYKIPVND

B1: Cdc20^N (N-terminal truncation of Cdc20, residues 1-73) (domain or fragment, human, UniProt Q12834 1-73, looked up)
chain: MAQFAFESDLHSLLQLDAPIPNAPPARWQRKAKEAAGPAPSPMRAANRSHSAGRTPGRTPGKSSSKVQTTPSK
notes: human Cdc20, residues 1-73; also called Cdc20^1–73; wild-type Cdc20^N; source: E. coli Rosetta 2 (DE3), purified (TALON, TEV cleavage, HisTrap, Resource S, Superdex 75); not shown: His6, N-terminal, cleaved; MBP, N-terminal, cleaved
With B1, in data set [1], the stoichiometry N (Cdc20^N per pMad1^CTD homodimer) worked out at 1. The same molecule yielded a stoichiometry N (Cdc20^N per pMad1^CTD dimer) in [2] of 1. Besides, the Kd in data set [3] worked out at 28.1 µM; in data set [4] it was 4.8 µM.

B2: Cdc20^MIM peptide (peptide)
peptide: NLNGFDVEEAKILRLSGKPQNAPEGYQNRLKVLY
notes: source: synthetic peptide (Designer Bioscience, UK)
As for B2, the binding result in data set [5] is listed as “binds”.

B3: Mad1^CTD phosphorylated at Thr716 (pMad1^CTD) (domain or fragment, UniProt Q9Y6D9 597-718, looked up)
chain: T1 sequence 1
modifications: phosphothreonine at 716 (pThr716)
notes: Mad1 C-terminal domain (Mad1^CTD), residues 597-718; Homodimer; A few peptides phosphorylated at Thr644 were also found; one phosphate per monomer by intact mass; also called Mad1^CTD pT716; Mad1^CTD pThr716
With B3, the “stoichiometry N” value in data set [6] came out at 2.

B4: Mad1^CTD K619A: Mad1CTD K619A mutant, refs 21, 24 (protein, UniProt Q9Y6D9 597-718, looked up, variant K619A)
chain: T1 sequence 1 with K23A
Take B4: the “Bub1CD1 binding of Mad1CTD mutant” value in the data set with Bub1CD1 [7] is listed as “did not disrupt Bub1^CD1 binding significantly”. Also, in data set [8], the checkpoint function result is recorded as “disrupted the checkpoint”.

B5: Mad1^CTD R617E/K619D: Mad1CTD double mutant of the RLK motif (protein)
chain: T1 sequence 1 with R21E, K23D
As to B5, the “Bub1CD1 binding of Mad1CTD mutant” value in the data set with Bub1CD1 [9] is “disrupted the binding of Bub1^CD1”.

One may read the Kd as the concentration at which binding is half-saturated. Low readings indicate tighter binding, high ones weaker binding. The term stoichiometry N denotes a count of units in the complex or per binding partner.
